In the supplement of paper PMC10126150 one finds switch fluorescence ratio data, which are given here for 66 sequences.

For the data set, the system named is ATP. Nature of the data set: switch fluorescence ratio, 500 uM ATP over buffer (Cy3 cluster intensity, sum of 5 cycles each) (fold (ratio)); higher = stronger signal-on switching upon ATP binding; sequences stand for … in TCGTCGGCAGCGTCAGATGTGTATAAGAGACAGTTTTTTTTTTTTTTTTTTTTTTTTT…TC. To be noted: aptamer strand: ATP DNA aptamer (quencher-CACCTGGGGGAGTATTGCGGAGGAAGG + anchor), 100 nM annealed; ATP concentration: 500 uM. In a few lines:
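Per cluster, summed Cy3 intensity from the target cycles was divided by that from the buffer cycles to give the fluorescence ratio, then averaged per switch-domain sequence. Clusters outside 100-1000 RFU were excluded. The Cy3-labelled switching-strand clusters, on a modified Illumina MiSeq flow-cell, were annealed to 100 nM quencher-labelled ATP aptamer and imaged in selection buffer, then after 15 min with 500 uM ATP at 22 °C, for five cycles with NaOH stripping and re-annealing between them.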

± gives the standard deviation of the averaged measurements.
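Note: ATP exposure 15 min at 22 °C before imaging.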

As to TAAAAGATGG, the switch fluorescence ratio worked out at 1.02 ± 0.019.
Consider GGATATTTTT, for which the switch fluorescence ratio stood at 1.01 ± 0.016.
Under TGCTGCCTAC stands 2.38 ± 1.6.
Consider TTATTCGAGA, for which the switch fluorescence ratio is 1.02 ± 0.034.
Under GAGGGGATGT stands 0.978 ± 0.026; under AAATTAGATG, 1.009 ± 0.0051.
Under GTGTGTTTGC stands 1.004 ± 0.0058.
Take GGGGGCCGGA: the switch fluorescence ratio was determined as 1.01 ± 0.048.
For GGCGGGAATT, the switch fluorescence ratio was 0.972 ± 0.031.
As for AGGGGCTGCG, the figure is 0.938 ± 0.029; as for TGGGGTTGAC, 0.9697 ± 0.0034.
For CGGAGGAACG, the switch fluorescence ratio worked out at 1.01 ± 0.038.
Under GTGAGTTGGG stands 1.01 ± 0.014; under CAACTGCGTG, 0.989 ± 0.013; under TTAAGGGATC, 0.957 ± 0.038.
Regarding CTACTTTTTT, the switch fluorescence ratio stood at 1.01 ± 0.023.
Under ACTCATTTAC stands 1.21 ± 0.096; under CTTAGCTATT, 1.019 ± 0.0077.
As for CCAGCAGGGA, the figure is 1.37 ± 0.49; as for AGCTTGGACC, 1.009 ± 0.0084.
As to GTATAAAGGC, the switch fluorescence ratio is 1.01 ± 0.047.
AGGGGTGCTA: the switch fluorescence ratio is 0.9996 ± 0.0095.
As for AGGAAGTGGT, the figure is 0.9671 ± 0.006; as for ACGGCATAAT, 1.11 ± 0.013.
For GTTTCGAGGT, the switch fluorescence ratio came to 0.96 ± 0.012.
With TGTAGAGGGC, the switch fluorescence ratio was found to be 1.04 ± 0.026.
With TATATCTCCG, the switch fluorescence ratio is 1.12 ± 0.015.
Under GCCAGCATAT stands 1.153 ± 0.0062; under GGGGGTCACG, 0.978 ± 0.028; under AATTTGCGGT, 0.988 ± 0.022.
Under AAAAGGCCGG stands 1.05 ± 0.14.
Under TAAAAACGAC stands 1.04 ± 0.051; under GGCAACGGGG, 1.01 ± 0.036.
Consider AAACCCAAAG, for which the switch fluorescence ratio was found to be 1.02 ± 0.045.
With TTGGACTATA, the switch fluorescence ratio came to 1.02 ± 0.043.
As for TTAGGAGAAA, the figure is 1.03 ± 0.053; as for AGGTGATGGT, 0.997 ± 0.023; as for CGTTTTGGTT, 0.976 ± 0.021.
For ATGTGAGGGT, the switch fluorescence ratio came to 1.017 ± 0.0039.
Turning to GGTCGCTACA, the switch fluorescence ratio came out at 1.01 ± 0.026.
Turning to ACAGCTGGGG, the switch fluorescence ratio stood at 1.0159 ± 0.00055.
Under GACAAATGTG stands 0.99815 ± 0.00093; under AAGGATAGGA, 1 ± 0.014.
TTGATTAGGC: the switch fluorescence ratio is 1.06 ± 0.029.
As for TTGTAGTCTT, the figure is 0.991 ± 0.022; as for TTTGAGTAAA, 1.01 ± 0.019; as for TTATTATTCA, 1.008 ± 0.0047.
As for TTTTAGAATT, the figure is 0.996 ± 0.013; as for TAGCTGGGGC, 1.02 ± 0.037.
As for CAAAGTTGGA, the figure is 1.01 ± 0.017.
As to GGGGGTGGCA, the switch fluorescence ratio came out at 0.998 ± 0.042.
Under AGAAAATTTT stands 1.03 ± 0.031.
Regarding AGTCTTAGTC, the switch fluorescence ratio was found to be 0.9497 ± 0.002.
For CCAATTGTGG, the switch fluorescence ratio amounted to 0.9977 ± 0.0056.
As for ATAGGGCCGC, the figure is 1.02 ± 0.034; as for GATGAGGTTC, 0.967 ± 0.053.
As for TGTTGTTGTT, the figure is 1.01 ± 0.086; as for GTTGGATGCT, 0.949 ± 0.028.
Under AGTTGTACTA stands 0.9633 ± 0.0046; under GTGTGTTTAG, 0.9892 ± 0.0058.
In the case of GTCGGAGGGG, the switch fluorescence ratio is 0.982 ± 0.043.
As for AATTTGATGC, the figure is 0.985 ± 0.018; as for ATGATGGTGG, 1.02 ± 0.057; as for ATATACTTCT, 1.02 ± 0.025.
As for ATGGATAAGA, the figure is 1 ± 0.014; as for TTATTGGGGT, 1.01 ± 0.013.
